Measurements taken from the supplement of paper PMC12067230.

B1: N-4-Y; numbered along this chain (parent)
chain: EASNCFAIRHFENKFAVETLICFNLFLNSQEKHY

Variants of: B1
Assay: amyloid nucleation score relative to WT ADan (yeast Sup35 reporter selection) (log enrichment difference); higher = more amyloid nucleation
Experimental: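 Deep mutational scan of the ADan peptide fused to the Sup35 nucleation domain (SupN) in S. cerevisiae [psi-pin-], covering all single amino-acid substitutions and stop truncations (truncations = sequence up to the stop). After 24 h Cu2+ induction, cells were selected on -ADE-URA plates for 7 d at 30 °C. The nucleation score is log enrichment (output/input, deep sequencing) minus that of WT ADan, as the error-weighted mean of 3 biological replicates (DiMSum).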

Amyloid nucleation score, by site and new letter:
N4: Y -2.45; V -4.24; G -2.24; S -0.879; P -0.352; M -4.92; K 0.0897; Q -0.267; T -2.19; R -0.0776; D 0.376; I -3.04; A -3.1; F -4.13; H -0.547; C -2.58; W -3.34; L -4.8; E 0.296
F15: T -0.00209; Y 0.0276; I 0.203; V 0.0927; C -0.147; L -0.25; K -1.37; N -0.337; Q -0.502; S -0.453; E -2.18; G 0.818; D -2.5; H -2.51; R -2.18; P 0.782; W -1.15; A 0.534; M 0.405
E1: H -0.752; R -1.76; Y 0.135; V 0.419; G 0.0173; M -0.555; F -1.27; C 0.179; L -1.03; W 0.00448; P 0.117; K -1.2; Q -0.0134; T -1.09; A 0.401; N 0.0879; I -1.07; S -0.005; D -0.0528
F6: Q 0.362; H 0.563; K 0.8; V -0.127; E 0.683; A 0.0803; W 0.168; S 0.477; P 0.53; M -0.0809; Y 0.351; L -0.5; N 0.646; G 0.176; I -0.609; D 0.634; C 0.408; R 0.678
R9: S 0.143; F -0.221; A 0.274; L -0.614; G 0.614; E -0.741; Y 0.0138; N 0.528; T 0.386; K -0.189; Q 0.474; H -0.0444; V -0.535; W -0.819; C 0.0357; M 0.735; D 0.286; I -0.484
E12: K -0.108; F -2.21; L -2.5; Y -0.651; D 0.334; P 0.357; C -0.751; S -0.259; I -3.73; Q -0.321; G -0.627; N -0.269; W -2.66; M -1.67; H 0.13; A -0.733; T -0.329; V -2.02; R -0.892
F11: M 0.968; Q 0.646; G 0.144; D -0.0408; L 0.0755; C 0.247; W -0.14; V 0.671; S -0.135; K 0.435; P 0.683; I 0.216; A 0.14; Y 0.379; R 0.366; E 0.0736; N -0.169; H -0.0333; T 0.236
A2: C 0.581; T -0.12; L -1.51; Q 0.125; V -1.22; K -0.117; F -1.28; D 0.518; R -0.078; I -1.13; H 0.353; E 0.464; G 0.0812; P 0.0538; M -1.1; S 0.208; W -0.655; N 0.137; Y -0.52
K14: L 0.488; T 0.665; F 0.137; E 0.00624; G -0.903; S 0.341; M 0.629; A 0.253; V 0.207; R -0.195; Y 0.185; H 1.04; C 0.65; I 0.391; W 0.0928; Q 0.601; D 0.152; P 0.000567; N 0.701
C5: P 0.685; H 0.0549; E 0.484; V -0.199; Q 0.396; G 0.214; F 0.0304; D 0.699; T -0.0743; L -0.0462; R 0.0293; A 0.274; M 0.796; I -0.166; W -1.36; K -0.223; S 0.0127; N 0.0664; Y -0.00901
E18: Q -0.141; M -3.07; N 0.236; K 0.239; C -1.06; F -2.56; L -2.63; G 0.127; I -3.49; H -0.855; A -0.809; D 0.406; P 0.645
I8: R 0.781; H 0.873; P 0.188; V 0.0841; T 0.634; N 0.497; F 0.15; A 0.49; K 0.701; L 0.288; E 0.604; G 0.834; M 0.354; D 0.678; W 0.464; Q 0.519; C 0.524; S 0.471; Y 0.183
H10: I 0.111; R 0.227; N -0.16; A 0.402; L -0.281; Y -0.291; S -0.245; C 0.429; M -0.511; K 0.566; G 0.122; E 0.551; V 0.0906; Q 0.00592; W -0.926; P 0.798; T 0.0221; F -0.478; D 0.76
N13: G 1.19; D 0.0178; Y -1.67; W -0.378; P -0.534; E -0.506; S -0.991; M -0.696; H -1.45; T -0.39; R -1.97; V 0.195; K -0.309; F -0.221; L -0.652; Q 0.539; A -0.453; C -0.187; I -0.0116
V17: L -0.705; C 0.711; N -0.235; S 0.586; G 0.953; W -0.301; Q -1.12; E -1.74; T -0.513; Y -2.81; P 0.114; A 0.689; K 0.416; H -1.16; F -0.0103; D -0.492; R 0.126; I 0.523; M -1.07
S3: T -0.349; K 0.21; C 0.601; E 0.224; N 0.0448; I -1.1; A 0.258; L -0.738; Q -0.501; F -0.00261; P 0.338; V -0.392; M 0.163; D 0.481; G 0.112; Y 0.296; H -0.359; R -0.46; W -0.398
A16: L -0.774; M -0.212; H 0.76; E 1.02; Y 0.572; W -0.102; T 0.448; Q 0.708; N 0.755; R 0.372; V -0.233; G 0.407; K 0.514; P -1.2; D 0.736; F 0.651; C 0.159; I -0.647; S 0.414
A7: P 0.577; V 0.125; M -0.0811; R 0.12; Y 0.529; F 0.173; G 0.45; T -0.0425; C 0.601; H 0.394; Q 0.436; W -0.43; N 0.744; K 0.0182; I -0.415; L -1.17; D -0.2; S 0.0708; E 0.0742
